Data as given in patent publication US20090081238A1 (Genentech, published 2009).
Residue numbers refer to the chain shown, from its start.

T1: human Notch4 NRR (human, UniProt Q99466 1172-1447, limits assumed)
T1 construct: domain: NRR; Construct not described; also called human NRR4
T1 sequence (looked up): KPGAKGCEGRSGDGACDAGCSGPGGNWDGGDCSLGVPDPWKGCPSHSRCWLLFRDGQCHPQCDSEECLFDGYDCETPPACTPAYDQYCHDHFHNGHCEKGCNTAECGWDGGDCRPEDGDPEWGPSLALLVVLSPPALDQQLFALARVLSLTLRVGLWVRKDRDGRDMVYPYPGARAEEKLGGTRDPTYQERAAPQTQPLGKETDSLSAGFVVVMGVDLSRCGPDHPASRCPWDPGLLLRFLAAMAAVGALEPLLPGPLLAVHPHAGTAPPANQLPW

T2: murine Notch4 NRR (mouse, UniProt P31695 1168-1443, limits assumed)
T2 construct: domain: NRR; Construct not described; also called mouse NRR4
T2 sequence (looked up): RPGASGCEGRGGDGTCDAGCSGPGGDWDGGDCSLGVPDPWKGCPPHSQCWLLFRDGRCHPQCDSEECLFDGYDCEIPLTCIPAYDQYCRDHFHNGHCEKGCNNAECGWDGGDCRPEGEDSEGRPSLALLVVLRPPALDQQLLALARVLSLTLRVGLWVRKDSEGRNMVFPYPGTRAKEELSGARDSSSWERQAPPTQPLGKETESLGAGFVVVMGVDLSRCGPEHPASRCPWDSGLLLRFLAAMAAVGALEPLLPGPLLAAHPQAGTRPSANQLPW

T3: human Notch2 NRR (human, UniProt Q04721 1425-1677)
T3 construct: domain: NRR; Construct not described; also called human NRR2
T3 sequence (looked up): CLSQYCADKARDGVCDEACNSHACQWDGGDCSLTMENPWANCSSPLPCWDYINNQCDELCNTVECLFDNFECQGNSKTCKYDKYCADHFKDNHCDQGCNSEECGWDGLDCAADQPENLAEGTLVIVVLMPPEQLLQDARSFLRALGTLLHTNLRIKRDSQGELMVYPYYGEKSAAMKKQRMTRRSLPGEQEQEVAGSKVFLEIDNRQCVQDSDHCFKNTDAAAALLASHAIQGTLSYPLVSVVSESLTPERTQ

T4: murine Notch2 NRR (mouse, UniProt O35516 1425-1679)
T4 construct: domain: NRR; Construct not described; also called mouse NRR2
T4 sequence (looked up): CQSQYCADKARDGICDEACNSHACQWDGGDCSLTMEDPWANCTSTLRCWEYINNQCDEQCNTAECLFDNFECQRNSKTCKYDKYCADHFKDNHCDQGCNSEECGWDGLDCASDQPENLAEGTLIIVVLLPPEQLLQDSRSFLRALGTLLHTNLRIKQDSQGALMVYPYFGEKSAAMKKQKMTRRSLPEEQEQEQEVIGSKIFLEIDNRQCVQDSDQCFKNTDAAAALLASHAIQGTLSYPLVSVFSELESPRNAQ

B1: Antibody A-1 (antibody, V domains shown)
VH: EVQLVESGGGLVQPGGSLRLSCAASGFTFSSYWIHWVRQAPGKGLEWVARINPPNGSAHYADSVKGRFTISADTSKNTAYLQMNSLRAEDTAVYYCARGSGFRWVMDYWGQGTLVTVSS
VL: DIQMTQSPSSLSASVGDRVTITCRASQDVSTAVAWYQQKPDGTVKLLIYSASFLYSGVPSRFSGSGSGTDFTLTISSLQPEDFATYYCQQSYTTPATFGQGTKVEIKR
notes: also called Antibody A-1-hIgG1
B2: Antibody A-3 (phage-displayed Fab clone) (Fab, V domains shown)
VH: B1 VH with P54A, A58T, H59R
VL: DIQMTQSPSSLSASVGDRVTITCRASQDVSTAVAWYQQKPDGTVKLLIYSASFLYSGVPSRFSGSGSGTDFTLTISSLQPEDFATYYCQQSFSTPATFGQGTKVEIK
B3: Antibody A-1 (phage-displayed Fab clone) (Fab, V domains shown)
VH: B1 VH
VL: B1 VL
B4: Antibody A-3 (antibody, V domains shown)
VH: B1 VH with P54A, A58T, H59R
VL: B2 VL
B5: Antibody A (antibody, V domains shown)
VH: B1 VH with P54S, A58T, H59N
VL: B1 VL with A96P
notes: Tested as full-length human IgG1 (hIgG1) made in CHO cells; also called anti-Notch1 NRR Antibody A; Antibody A-hIgG1
B6: Antibody A-2 (antibody, V domains shown)
VH: B1 VH with G56R, A58N, H59Q
VL: B1 VL with S91F, A96S
notes: also called Antibody A-2-hIgG1
B7: Antibody A-2 (phage-displayed Fab clone) (Fab, V domains shown)
VH: B1 VH with G56R, A58N, H59Q
VL: B1 VL with S91F, A96S

Tests used:
[1] = target: T5, hFLAG-EGF34+NRR-His6 (101V), the human Notch1 NRR immunogen (Notch1 V1307-Q1733) (human, UniProt P46531 1307-1733); experiment: ELISA, target coated on the plate at 1 ug/ml, IgG titrated in 3-fold steps, detected with peroxidase anti-human Fab; A630
T5 construct: also called hNotch1 NRR; human NRR1
Description: (§1) 1 μg/ml of proteins in PBS, pH 7.4, were coated on ELISA plates (Nunc Maxisorp) at 4° C. overnight. Plates were blocked with Casein blocker in PBS (phosphate buffered saline; Pierce) for one hour at room temperature. Serial 3-fold dilutions of anti Notch1 NRR IgGs or irrelevant IgG in PBST buffer (PBT buffer (PBS+0.05% (v/v) Tween 20) with 0.5% (w/v) BSA) were added to the plates and incubated for one hour at room temperature. The plates were then washed with PBST and bound antibodies were detected with peroxidase-conjugated goat anti human Fab specific IgG (Sigma). TMB substrate (3,3′,5,5′-etramethylbenzidine) was used and absorbance at 650 nm was read using a standard ELISA plate reader. Absorbance was plotted against concentrations of IgGs using KaleidaGraph (Synergy Software).

[2] = target: T6, hFLAG-NRR-His6 (102V) (human, UniProt P46531 1447-1733); experiment: as above
T6 construct: no EGF-like repeats; not shown: FLAG tag; thrombin cleavage site and HIS tag
Description: as §1

[3] = target: T7, mFLAG-EGF34+NRR-His6, the mouse Notch1 NRR immunogen (Notch1 V1307-Q1723) (mouse, UniProt Q01705 1307-1723); experiment: as above
T7 construct: the rest carries an N-terminal FLAG tag and a C-terminal His tag; also called mNotch1 NRR; murine NRR1
T7 sequence (Q01705 other isoform, or with tags, fused parts or gaps): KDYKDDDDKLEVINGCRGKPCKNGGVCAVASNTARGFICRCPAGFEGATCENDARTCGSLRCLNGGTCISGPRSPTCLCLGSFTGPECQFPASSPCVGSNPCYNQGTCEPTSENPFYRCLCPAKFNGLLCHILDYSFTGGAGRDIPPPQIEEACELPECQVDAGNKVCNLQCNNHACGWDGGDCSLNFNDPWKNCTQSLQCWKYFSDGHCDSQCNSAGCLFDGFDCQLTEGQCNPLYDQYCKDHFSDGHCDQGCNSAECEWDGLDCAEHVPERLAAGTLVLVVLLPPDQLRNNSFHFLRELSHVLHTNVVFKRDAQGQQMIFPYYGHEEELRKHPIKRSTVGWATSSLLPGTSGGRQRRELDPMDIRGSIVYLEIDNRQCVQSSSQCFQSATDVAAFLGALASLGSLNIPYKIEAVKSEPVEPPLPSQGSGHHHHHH
Description: as §1

[4] = target: mEGF34+NRR-L1597H-FLAG-TEV-Fc (mouse) (UniProt Q01705); experiment: as above
Sequence of mEGF34+NRR-L1597H-FLAG-TEV-Fc (mouse) (Q01705 1307-1723, stated change not applied): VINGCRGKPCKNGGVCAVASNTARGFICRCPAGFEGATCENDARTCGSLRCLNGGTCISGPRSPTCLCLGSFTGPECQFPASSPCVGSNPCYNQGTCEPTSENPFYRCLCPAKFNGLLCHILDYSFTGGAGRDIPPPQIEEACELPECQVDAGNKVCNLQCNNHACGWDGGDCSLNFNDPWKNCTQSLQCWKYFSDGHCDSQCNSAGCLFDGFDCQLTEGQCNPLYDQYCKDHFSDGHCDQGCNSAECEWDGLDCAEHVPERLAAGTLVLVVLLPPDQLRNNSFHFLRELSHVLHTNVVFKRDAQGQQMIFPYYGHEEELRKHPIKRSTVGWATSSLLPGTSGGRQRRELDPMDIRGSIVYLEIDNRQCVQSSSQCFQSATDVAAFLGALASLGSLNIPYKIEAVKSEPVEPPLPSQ

[5] = target: T5, hFLAG-EGF34+NRR-His6 (101V), the human …; experiment: SPR (BIAcore-3000), IgG captured by anti-human IgG, NRR1-ECD injected 3.9-500 nM, 25 C
Description: (§2) To further characterize the binding affinity and binding kinetics of the anti-Notch1 NRR Mabs, surface plasmon resonance (SRP) measurement with a BIAcore™-3000 was used (BIAcore, Inc., Piscataway, N.J.). Briefly, carboxymethylated dextran biosensor chips (CM5, BIAcore Inc.) were activated with N-ethyl-N′-(3-dimethylaminopropyl)-carbodiimide hydrochloride (EDC) and N-hydroxysuccinimide (NHS) according to the supplier's instructions. Rabbit anti human antibody (Pierce) was diluted with 100 mM sodium acetate, pH 4.8, into 20 μg/ml before injection at a flow rate of 5 μl/minute to achieve approximately 3000 response units (RU) of coupled antibody. Next, 1M ethanolamine was injected to block unreacted groups. Anti-NRR1 mab (formatted as a full-length IgG) was captured by rabbit anti-human IgG coated on the chips to achieve approximately 200 response units (RU). For kinetics measurements, two-fold serial dilutions of human NRR1-ECD or murine NRR1-ECD proteins (3.9 nM to 500 nM) were injected in PBT buffer (PBS with 0.05% Tween 20) at 25° C. with a flow rate of 30 μl/min. Association rates (kₒₙ) and dissociation rates (koff) were calculated using a simple one-to-one Langmuir binding model (BIAcore Evaluation Software version 3.2). The equilibrium dissociation constant (KD) was calculated as the ratio koff/kₒₙ.

[6] = target: T7, mFLAG-EGF34+NRR-His6, the mouse Notch1 …; experiment: as above
Description: as §2

[7] = target: T5, hFLAG-EGF34+NRR-His6 (101V), the human …; experiment: competitive phage-binding ELISA: phage-displayed Fab, soluble NRR1 titrated against coated NRR1
Description: (§3) To identify the phage antibodies that bound to both human and murine Notch1 NRR, all unique clones were tested for binding to human and murine Notch1 by ELISA. The affinities of phage antibodies were ranked using single spot competition ELISA as described below in this Example. The phage antibody IC50 values were further determined using competitive phage-binding ELISA essentially described in Lee, C. V., et al. (2004) J Mol Biol 340, 1073-93. Briefly, NUNC 96 well Maxisorp immunoplates were coated overnight at 4° C. with 1 μg/ml human NRR1 or murine NRR1, and were blocked for 1 hour at room temperature with blocking buffer PBST (PBS and 1% BSA and 0.05% Tween 20). Phage was mixed with serial dilution of human or murine NRR1 at room temperature for 1 hour before the mixture was added to human and murine NRR1 coated plate. Bound phage were detected with anti-M13 HRP conjugates, developed with TMB substrate for approximately 5 minutes, quenched with 1M H₃PO₄, and read spectrophotometrically at 450 nm.

[8] = target: T7, mFLAG-EGF34+NRR-His6, the mouse Notch1 …; experiment: as above
Description: as §3

[9] = target: human Notch1 (on NIH-3T3 cells) (human, UniProt P46531 19-2555); experiment: cell-based or functional assay
[10] = target: T1, human Notch4 NRR; experiment: cross-reactivity test of the IgG (method not detailed)
[11] = target: T8, murine Notch3 NRR (mouse, UniProt Q61982 1379-1643, limits assumed); experiment: as above
T8 construct: domain: NRR; Construct not described; also called mouse NRR3
T8 sequence (Q61982 1379-1643 limits assumed): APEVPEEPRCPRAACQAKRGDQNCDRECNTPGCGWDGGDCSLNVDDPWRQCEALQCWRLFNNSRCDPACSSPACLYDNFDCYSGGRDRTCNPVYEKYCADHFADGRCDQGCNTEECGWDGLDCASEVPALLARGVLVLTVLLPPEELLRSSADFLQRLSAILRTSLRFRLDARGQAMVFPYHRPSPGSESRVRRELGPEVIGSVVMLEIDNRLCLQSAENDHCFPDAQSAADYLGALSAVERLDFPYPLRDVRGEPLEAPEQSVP

[12] = target: T2, murine Notch4 NRR; experiment: as above
[13] = target: T3, human Notch2 NRR; experiment: as above
[14] = target: T4, murine Notch2 NRR; experiment: as above
[15] = target: T9, human Notch3 NRR (human, UniProt Q9UM47 1378-1643, limits assumed); experiment: as above
T9 construct: domain: NRR; Construct not described; also called human NRR3
T9 sequence (Q9UM47 1378-1643 limits assumed): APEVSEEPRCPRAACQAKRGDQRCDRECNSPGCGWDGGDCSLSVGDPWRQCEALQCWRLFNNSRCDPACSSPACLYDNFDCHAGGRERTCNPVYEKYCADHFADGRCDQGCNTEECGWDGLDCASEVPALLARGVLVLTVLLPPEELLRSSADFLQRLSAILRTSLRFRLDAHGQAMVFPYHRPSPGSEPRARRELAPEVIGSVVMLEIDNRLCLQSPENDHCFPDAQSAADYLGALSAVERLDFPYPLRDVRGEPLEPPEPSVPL

Binder	EC50 (read off the curve) [1] [µg/mL]	EC50 (read off the curve) [2] [µg/mL]	EC50 (read off the curve) [3] [µg/mL]	EC50 (read off the curve) [4] [µg/mL]	Kd [5] [nM]	koff [5] [s⁻¹]	kon [5] [M⁻¹ s⁻¹]	Kd [6] [nM]	koff [6] [s⁻¹]	kon [6] [M⁻¹ s⁻¹]	IC50 [7] [nM]	IC50 [8] [nM]	Co-culture blocking, IC50 [9] [µg/mL]	binding result [10]	binding result [11]	binding result [12]	binding result [13]	binding result [14]	binding result [15]
B1	~0.2	~0.1	~0.07	0.06	3.43	0.00023	67000	3.88	0.00033	85000	–	–	–	–	–	–	–	–	–
B2	–	–	–	–	–	–	–	–	–	–	0.5	2.5	–	–	–	–	–	–	–
B3	–	–	–	–	–	–	–	–	–	–	0.8	0.6	–	–	–	–	–	–	–
B4	–	–	–	–	5.88	0.0004	68000	13	0.0012	92000	–	–	–	–	–	–	–	–	–
B5	~0.07	~0.07	~0.05	0.04	134	0.011	82000	231	0.021	91000	–	–	~0.1	no binding	no binding	no binding	no binding	no binding	no binding
B6	~0.07	~0.06	~0.05	0.04	2.53	0.00022	87000	3.09	0.00034	110000	–	–	–	–	–	–	–	–	–
B7	–	–	–	–	–	–	–	–	–	–	0.5	0.5	–	–	–	–	–	–	–
